Measurements as given in US20190002846A1, “POLYPEPTIDES HAVING DEMETHYLATING ACTIVITY” (Genencor International B.V., priority 2015, published 2019).

What was measured:
[1] = Catechol oxidase activity assay: initial rate of 3-methoxycatechol oxidation at 400 nm (pH, copper and temperature optima); format: biochemical; conditions: for pHopt: 3-methoxycatechol oxidation, room temperature, 10 μM CuSO4, Carmody buffers pH3-9; for T range / pH range: >50% of maximum activity; for [CuSO4] range: >90% of maximum activity; for Topt: A400 after 1 h incubation, 20 to 70° C., 50 mM Bis-Tris pH 7.0, 20 or 50 μM copper; for [CuSO4]opt: at optimal pH, 50 mM Bis-Tris buffer pH 7.0, CuSO4 varied 1-1000 μM
Method: PPO activity was determined by measuring the initial rate of 3-methoxycatechol oxidation at 400 nm (extinction coefficient used: ε 1200 M^−1cm^−1). One unit of activity is defined as the amount of PPO activity that oxidizes 1 μmol of 3-methoxycatechol to quinone per minute. Substrate was used at a concentration of 4 mM.
The pH optima were determined by measuring the initial rate of 3-methoxycatechol oxidation with varying pHs, at room temperature and using a CuSO4 concentration of 10 μM. The pH was varied in the range of pH3-9 using Carmody buffers. Enzyme loading was applied resulting in A400 absorbance values in the range of 0.1-1. Protein concentration was determined using the BCA method.
Optimal copper concentrations for the PPOs were determined at the optimal pH by varying the concentration of CuSO4 in the range of 1-1000 μM. In these experiments the pH was controlled using 50 mM Bis-Tris buffer pH 7.0.
Temperature optima were determined by measuring A400 absorbance after 1 h incubation at temperatures in the range of 20 to 70° C. In these experiments the pH was controlled using 50 mM Bis-Tris buffer pH 7.0. Copper concentrations of (20 or 50 μM) were used to prevent chemical oxidation as background activity at higher copper concentrations.

[2] = Conversion of syringic acid, sinapic acid and syringol by crude PPOs, absorbance at 400 nm; format: biochemical; conditions: 4 mM substrate, crude PPO 8.2 μg/mL, pH 6.0 or 7.0, 50 μM CuSO4, room temperature, 2, 22 and 118 h
Method: Syringic acid, sinapic acid and syringol (4 mM) were incubated with crude PPO2, 4, 6 and 7 from Example 5 in 100 mM BisTris buffer pH 6.0 or 7.0 with 50 μM CuSO4. Crude PPOs were dosed on target protein with a final concentration of 8.2 μg/mL. Substrate blanks prepared without the addition of enzyme and enzyme blanks without the addition of substrate were included. Incubations were performed in microtiterplates with a total reaction volume of 150 μL at room temperature for approximately 120 h. After 2, 22 and 118 h absorbance at 400 nm was measured.

[3] = target: T1, RAC incubated with LPMO9B (Thermothelomyces thermophilus, UniProt G2QCJ3); assay: RAC hydrolysis assay with LPMO9B and PPO2, PPO7 or AbTyr in the presence of sinapic acid or syringic acid; format: biochemical, Myceliophthora thermophila; conditions: for Activity: total release of non-oxidized and C1-oxidized gluco-oligosaccharides from RAC: LPMO9B 5 μg/ml alone = 100%, or with added enzyme, pH 5.0, 50° C., 24 h
T1 construct: made in house; host or cells: Myceliophthora thermophila C1 strain W1L#100.1Δpyr5ΔAlp1
T1 sequence (G2QCJ3 19-323): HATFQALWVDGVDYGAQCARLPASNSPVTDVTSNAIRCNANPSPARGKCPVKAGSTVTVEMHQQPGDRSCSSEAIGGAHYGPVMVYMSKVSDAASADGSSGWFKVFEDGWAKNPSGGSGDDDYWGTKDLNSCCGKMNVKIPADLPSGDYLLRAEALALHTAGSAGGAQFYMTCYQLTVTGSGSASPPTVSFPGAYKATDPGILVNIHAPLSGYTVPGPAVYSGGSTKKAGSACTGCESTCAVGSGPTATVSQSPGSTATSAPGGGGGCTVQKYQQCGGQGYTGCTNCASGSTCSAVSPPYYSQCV
Method: Reducing agents sinapic acid and syringic acid were obtained from Sigma-Aldrich (St. Louis, Mo., USA). RAC was prepared from Avicel by swelling it in phosphoric acid, (Zhang Y H P, Cui J, Lynd L R, & Kuang L R (2006) A transition from cellulose swelling to cellulose dissolution by o-phosphoric acid: Evidence from enzymatic hydrolysis and supramolecular structure. Biomacromolecules 7(2):644-648.). RAC was dissolved in 50 mM phospate buffer (pH 5.0) to a final concentration of 1.5 mg/ml. Copper chloride was added to a final concentration of 2.5 μM and dimethoxy containg reducing agent sinapic acid or syringic acid to a final concentration of 2 mM. LPMO9B (5 μg/ml) with or without PPO2 (5 μg/ml), PPO7 (5 μg/ml) or AbTyr (7.5 U/ml) were added and incubated for 24 h at 50° C. in a head-over-tail rotator in portions of 1 mL total volume (Stuart® rotator, Bibby Scientific LTD, Stone, UK) at 20 rpm. Products were analysed by HPAEC and MALDI-TOF MS as described previously. (Frommhagen M, Sforza S, Westphal A H, Visser J, Hinz S W, Koetsier M J et al. Discovery of the combined oxidative cleavage of plant xylan and cellulose by a new fungal polysaccharide monooxygenase. Biotechnology for Biofuels. 2015; 8:101. doi:10.1186/s13068-015-0284-1). The Activity denoted as “Activity*” represents total release of non-oxidized and C1-oxidized gluco-oligosaccharides from RAC incubated with LPMO9B in the presence of sinapic or syringic acid as a reducing agent and with addition of either AbTyr, PPO7 or PPO2. […] Standard deviations were less than 2%.

[4] = target: T1, RAC incubated with LPMO9B; assay: RAC hydrolysis assay with LPMO9B and PPO7 or AbTyr in the presence of phenolic reducing agents; format: biochemical, Myceliophthora thermophila; conditions: for Activity: total release of non-oxidized and C1-oxidized gluco-oligosaccharides from RAC: LPMO9B alone = 100%, or with added enzyme, pH 5.0, 50° C., 24 h
Method: Phenolic reducing agents were obtained from Sigma-Aldrich (St. Louis, Mo., USA). RAC was prepared as described above and dissolved in 50 mM phospate buffer (pH 5.0) to a final concentration of 1.5 mg/ml. Copper chloride was added to a final concentration of 2.5 μM and a phenolic reducing agent to a final concentration of 2 mM. LPMO9B (5 μg/ml) with or without PPO7 (5 μg/ml) or AbTyr (7.5 U/ml) were added and incubated for 24 h at 50° C. in a head-over-tail rotator in portions of 1 mL total volume (Stuart® rotator, Bibby Scientific LTD, Stone, UK) at 20 rpm. Products were analysed by HPAEC and MALDI-TOF MS as described previously. (Frommhagen M, Sforza S, Westphal A H, Visser J, Hinz S W, Koetsier M J et al. Discovery of the combined oxidative cleavage of plant xylan and cellulose by a new fungal polysaccharide monooxygenase. Biotechnology for Biofuels. 2015; 8:101. doi:10.1186/s13068-015-0284-1). The Activity denoted as Activity * represents total release of non-oxidized and C1-oxidized gluco-oligosaccharides from RAC incubated with LPMO9B in the presence of a phenolic reducing agent and with addition of either AbTyr or PPO7. […] Standard deviations were less than 2%.

B1: PPO4: Myceliophthora thermophila C1 polyphenoloxidase with demethylating activity, mature form SEQ ID NO: 37 (protein, listed as Myceliophthora thermophila)
chain: DAVLDLQEKGRPAIDAQLAKSTTCTKEKLQVRREWGDISAEEKKAYIAAMLCIMEKPSRLDPNQFPGAKSRYDDFVVVHMNQTLSIHGTGNFLSWHRYYTWVFERALQEECGYNGTQPYWDWGRWADDPENSPIFDGSDTSLSGNGEYIEHRASGFIPAGNGGGCVKSGPFKDMVVHLGPVAPAIDPAPPANPRRDGYGDNPRCLRRDISNQLSSKYARTQDIVDLITTSADIGTFQTVMQGAGGFGVGPGGMGVHAAGHFTIAGDPGGDFYTSPNDPAFWVHHGMIDRTWTIWQSQDLDNRLQVIAGGSSMMGGPPQTLDDPVDLGVVADKVYPIRDLVSVVDGPFCYVYE
For B1, the pHopt [1] was 7.0, the T range [1] was 30-60 °C and the pH range [1] was 5.0-7.5. The “[CuSO4] range” value [1] was 20 to 1000 µM, the Topt [1] was 55 °C and the “[CuSO4]opt” value [1] was 200 µM. The “Conversion of substrates (absorbance at 400 nm)” value [2] was “only able to use syringic acid as a substrate”.

B2: LPMO9B: Myceliophthora thermophila lytic polysaccharide monooxygenase, mature amino acid sequence SEQ ID NO: 93 (protein, listed as Myceliophthora thermophila)
chain: HATFQALWVDGVDYGAQCARLPASNSPVTDVTSNAIRCNANPSPARGKCPVKAGSTVTVEMHQQPGDRSCSSEAIGGAHYGPVMVYMSKVSDAASADGSSGWFKVFEDGWAKNPSGGSGDDDYWGTKDLNSCCGKMNVKIPADLPSGDYLLRAEALALHTAGSAGGAQFYMTCYQLTVTGSGSASPPTVSFPGAYKATDPGILVNIHAPLSGYTVPGPAVYSGGSTKKAGSACTGCESTCAVGSGPTATVSQSPGSTATSAPGGGGGCTVQKYQQCGGQGYTGCTNCASGSTCSAVSPPYYSQCV
In the case of B2, the “Activity in the absence of a reducing agent” value ([3]; no reducing agent) is reported as “no activity was detected”, the “Activity: total release of non-oxidized and C1-oxidized gluco-oligosaccharides from RAC” value ([3]; reducing agent sinapic acid 2 mM) is reported as 100% and the “Activity: total release of non-oxidized and C1-oxidized gluco-oligosaccharides from RAC” value ([3]; reducing agent syringic acid 2 mM) is reported as 100%. The “Activity in the absence of a reducing agent” value ([4]; no reducing agent) was “no activity was detected”, the “Activity: total release of non-oxidized and C1-oxidized gluco-oligosaccharides from RAC” value ([4]; reducing agent 3,4-dihydroxy-5-methoxybenzoic acid 2 mM) was 100% and the “Activity: total release of non-oxidized and C1-oxidized gluco-oligosaccharides from RAC” value ([4]; reducing agent 3,4-dihydroxy-5-methoxycinnamic acid 2 mM) was 100%. The “Activity: total release of non-oxidized and C1-oxidized gluco-oligosaccharides from RAC” value ([4]; reducing agent 3,4-dihydroxybenzoic acid 2 mM) was 100%, the “Activity: total release of non-oxidized and C1-oxidized gluco-oligosaccharides from RAC” value ([4]; reducing agent 3-hydroxy-4-methoxycinnamic acid 2 mM) was 100% and the “Activity: total release of non-oxidized and C1-oxidized gluco-oligosaccharides from RAC” value ([4]; reducing agent 3-methylcatechol 2 mM) was 100%. For the same molecule, the “Activity: total release of non-oxidized and C1-oxidized gluco-oligosaccharides from RAC” value ([4]; reducing agent 4-allyl-2,4-methoxyphenol 2 mM) was 100%, the “Activity: total release of non-oxidized and C1-oxidized gluco-oligosaccharides from RAC” value ([4]; reducing agent 4-hydroxy-3-methoxyphenylactone 2 mM) was 100% and the “Activity: total release of non-oxidized and C1-oxidized gluco-oligosaccharides from RAC” value ([4]; reducing agent caffeic acid 2 mM) was 100%. For the same molecule, the “Activity: total release of non-oxidized and C1-oxidized gluco-oligosaccharides from RAC” value ([4]; reducing agent coniferyl aldehyde 2 mM) was 100%, the “Activity: total release of non-oxidized and C1-oxidized gluco-oligosaccharides from RAC” value ([4]; reducing agent ferulic acid 2 mM) was 100% and the “Activity: total release of non-oxidized and C1-oxidized gluco-oligosaccharides from RAC” value ([4]; reducing agent gallic acid 2 mM) was 100%. The “Activity: total release of non-oxidized and C1-oxidized gluco-oligosaccharides from RAC” value ([4]; reducing agent guaiacol 2 mM) was 100%, the “Activity: total release of non-oxidized and C1-oxidized gluco-oligosaccharides from RAC” value ([4]; reducing agent hesperidin 2 mM) was 100% and the “Activity: total release of non-oxidized and C1-oxidized gluco-oligosaccharides from RAC” value ([4]; reducing agent homovanillic acid 2 mM) was 100%. The “Activity: total release of non-oxidized and C1-oxidized gluco-oligosaccharides from RAC” value ([4]; reducing agent vanillic acid 2 mM) was 100%.

B3: PPO6: Myceliophthora thermophila C1 polyphenoloxidase with demethylating activity, mature form SEQ ID NO: 41 (protein, listed as Myceliophthora thermophila)
chain: AVKTVVITATTTVCPLSTRVCHGSSMISQSTNAPCSESTGITGSQSTAVTIPQSTDIISSQFSQFTDTTSSLSTGVACSSSPCPSNSQSTGTTSFESTGTTISQPTAVTNSSSTCLTSSQSTDAPSSESTGITISQSTGVTSSQSMSTPTSKSTAVPSSQSARVSTTSSSAKPSSTTETRPEPTLPNRAYPADIVDKLRDSGVDKLKEYLKSNPSNTGCTLENASIRREWSDLSVAEREEYIAAVKCLQSASPKSSKQQVPGARSRFDDFVATHINQTDSIHYTANFLSWHRYYVWAYEKALREECGYTGFQPYWNWDRYAADPANSPLFSGNSSSLSGNSVNGGCVTTGPFADMKVNLGPGASLAYNPRCLKRNISKSYAAMTTADKTYALITGSADIARFQDTMQAVPGVHAGGHFTIGGDPGGDVYSSPGDPAFWLHHAMIDRVWWIWQTHGLPGRLSEVAGSVAGSSRPGSGKDLVNLGVNGPAVAIENLLNTVGGLDGKMCYIYL
With B3 the pHopt [1] was 7.0, the T range [1] was 20-50 °C and the pH range [1] was 6.0-8.5. For the same molecule, the “[CuSO4] range” value [1] was 50 to 1000 µM, the Topt [1] was 30 °C and the “[CuSO4]opt” value [1] was 200 µM. For the same molecule, the “Conversion of substrates (absorbance at 400 nm)” value [2] was “able to convert syringic acid, sinapic acid and syringol”.
